Laboratory results reported in patent publication US20060263802A1 (CRUCELL HOLLAND B V, published 2006).

What was measured:
Test in all cases: PEPSCAN ELISA, looped 15-mer, 10 ug/ml
looped peptide […] [1] = target: looped peptide […] (rabies virus strain ERA)
looped peptide […] [2] = target: looped peptide […] (rabies virus strain ERA); remark: listed apart in the source
[3] = target: looped peptide … (rabies virus strain ERA)
looped peptide […] [4] = target: looped peptide […] (rabies virus strain ERA); remark: listed apart in the source
[5] = target: looped peptide … (rabies virus strain ERA); remark: listed apart in the source
looped peptide […] [6] = target: looped peptide […] (rabies virus strain ERA); remark: listed apart in the source
[7] = target: looped peptide … (rabies virus strain ERA); remark: listed apart in the source
[8] = target: looped peptide … (rabies virus strain ERA); remark: listed apart in the source
[9] = target: looped peptide … (rabies virus strain ERA); remark: listed apart in the source
[10] = target: looped peptide … (rabies virus strain ERA); remark: listed apart in the source
looped peptide […] [11] = target: looped peptide […] (rabies virus strain ERA); remark: listed apart in the source
[12] = target: looped peptide … (rabies virus strain ERA); remark: listed apart in the source
[13] = target: looped peptide … (rabies virus strain ERA); remark: listed apart in the source
[14] = target: looped peptide … (rabies virus strain ERA); remark: listed apart in the source
looped peptide […] [15] = target: looped peptide […] (rabies virus strain ERA); remark: listed apart in the source

B1: human monoclonal antibody CRJB (antibody, V domains shown)
VH: QITLKETGPTLVKPTQTLTLTCTFSGFSLSTSGVGVGWIRQPPGKALEWVTLIYWDDDKRYSPSLENRVTIRKDTSKNQVALTMTNMDPLDTGTYYCAHRQHISSFPWFDSWGQGTLVTVSS
VL: SYVLTQPPSVSVAPGKTARINCGGNNIEYRSVHWYQQKSGQAPVAVIYDNSDRPSGIPERFSGSKSGNTATLTISRVEAGDEADYYCQVWDISSDVVFGGGTKLTVLG
B1 gave an OD value (looped peptide […] [1]) of 132, an OD value (looped peptide […] [2]) of 206 and an OD value [3] of 76. For the same binder, the OD value (looped peptide […] [4]) was 87, the OD value [5] was 79 and the OD value (looped peptide […] [6]) was 71. For the same binder, the OD value [7] was 92, the OD value [8] was 72 and the OD value [9] was 63. It also gave an OD value [10] of 79, an OD value (looped peptide […] [11]) of 156 and an OD value [12] of 60. The OD value [13] was 74, the OD value [14] was 68 and the OD value (looped peptide […] [15]) was 186.
